Measured values as given in patent US8652790B2, “Conformational entropy in molecular recognition” (The Trustees of the University of Pennsylvania, priority 2007, dated 2014).

Experiments:
calmodulin [1] = target: T1, calmodulin (Homo sapiens, UniProt P0DP23); assay: NMR relaxation: backbone dynamics (order parameters) of calmodulin in complex with target domains; conditions: average ± standard deviation, 35° C.; for <O^2CαCO>: CO—Cα bond vectors of calmodulin in complex; for <O^2NH>: N—H bond vectors of calmodulin in complex
From the text: The sub-nanosecond (sub-ns) dynamics of the polypeptide backbone of calmodulin in the six complexes were probed using NMR relaxation techniques. The degree of spatial restriction of each motional probe was assigned a number between 0, corresponding to complete isotropic disorder, and 1, corresponding to a fixed orientation in the molecular frame. This parameter is the squared generalized order parameter (O^2) as it applies to the amide N—H bond (O^2NH), the Cα—C′ bond (O^2cαcO) and the methyl symmetry axis (O^2axis). O^2NH parameters at amide nitrogen sites were obtained from measurements of ^15N dipolar relaxation. Farrow, N. A. et al. Backbone dynamics of a free and a phosphopeptide-complexed Src homology-2 domain studied by ^15N NMR relaxation. Biochemistry 33, 5984-6003 (1994). O^2cαcO parameters were obtained from measurement of transverse cross-correlated relaxation between ^13CO chemical shift anisotropy and the ^13CO—^13Cα dipolar interactions. Wang, T., Cai, S. & Zuiderweg, E. R. Temperature dependence of anisotropic protein backbone dynamics. J. Am. Chem. Soc. […] The motion of methyl groups (O^2axis) of calmodulin side chains were characterized using ^2H spin relaxation methods. Muhandiram, D. R. et al. Measurement of H-2 T-1 and T-1p relaxation-times in uniformly C-13-Labeled and fractionally H-2-labeled proteins in solution. J. Am. Chem. Soc. 117, 11536-11544 (1995).
O^2axis parameters were determined from T1 and T1p deuterium relaxation (Muhandiram, D. R. et al. Measurement of H-2 T-1 and T-1p relaxation-times in uniformly C-13-Labeled and fractionally H-2-labeled proteins in solution. J. Am. Chem. Soc. 117, 11536-11544 (1995)) measured at two magnetic fields. Rotational correlation times and O^2NH were determined from ^15N relaxation (Farrow, N. A. et al. Backbone dynamics of a free and a phosphopeptide-complexed Src homology-2 domain studied by ^15N NMR relaxation. Biochemistry 33, 5984-6003 (1994)) obtained at two magnetic fields. O^2CαCO parameters were determined by transverse cross-correlated relaxation. Wang, T., Cai, S. & Zuiderweg, E. R. Temperature dependence of anisotropic protein backbone dynamics. J. Am. Chem. Soc. […] All measurements were made at 35° C. Model-free parameters (Lipari, G. & Szabo, A. Model-free approach to the interpretation of nuclear magnetic-resonance relaxation in macromolecules. 1. Theory and range of validity. J. Am. Chem. Soc. 104, 4546-4559 (1982)) were determined using a grid search approach (Dellwo, M J. & Wand, A. J. Model-independent and model-dependent analysis of the global and internal dynamics of cyclosporine-A. J. Am. Chem. Soc. 111, 4571-4578 (1989)) using a quadrupolar coupling constant of 167 kHz, an effective N—H bond length of 1.04 Å and ^15N tensor breadth of 170 p.p.m. […] The model-free parameters have been deposited in the Biological Magnetic Resonance Data Bank (“BioMagResBank,” Eldon L. Ulrich; Hideo Akutsu; Jurgen F. Doreleijers; Yoko Harano; Yannis E. Ioannidis; Jundong Lin; Miron Livny; Steve Mading; Dimitri Maziuk; Zachary Miller; Eiichi Nakatani; Christopher F. Schulte; David E. Tolmie; R. Kent Wenger; Hongyang Yao; John L. Markley; Nucleic Acids Research 36, D402-D408 (2007) doi: 10.1093/nar/gkm957).

calmodulin [2] = target: T1, calmodulin; assay: Populations of J, α, ω motional classes of calmodulin methyl O^2axis distributions in the complexes
Description: FIG. 3a, provides a histogram of the sum of the O^2axis parameter distributions of calmodulin in the six individual complexes obtained at 35° C. The solid line represents the best-fitted solution to a 3-gaussian distribution with all nine parameters fitted. FIG. 3b provides histograms of the O^2axis parameter distributions of calmodulin in the individual complexes. […]
The summed distribution of O^2axis axis parameters of all six complexes was fitted to a random distribution and to one, two- and three-gaussian distribution models. […] (3) where Ai, Ci and Wi define the population, centre and breadth, respectively, of the J, α and ω classes of motion.
The nine parameters were fitted using the nonlinear regression routine of SigmaPlot 2000 (SPSS). […] These centres were fixed in subsequent fitting of the O^2axis distributions of the individual complexes, from which the relative populations of each motional class were obtained. Uncertainties in the fitted populations were estimated by varying the O^2axis parameters by two standard deviations. […] The total change in conformational entropy of calmodulin on binding a target domain was calculated as the sum of three terms: ΔSconf=ΔSharm+ΔSrotamer(fast)+ΔSrotamer(slow). Changes in conformational entropy ΔSrotamer(fast) expressed as changes in motion within a rotameric well on the fast timescale (sub-ns) were obtained from the experimentally determined O^2axis parameters using a simple harmonic oscillator model. Li Z et al. (1996). To calculate changes in entropy derived from motion of the same oscillator, site-to-site comparison to free calcium-saturated calmodulin was used to provide a reference state. The change in the entropy reflected by the change in the motion of each methyl symmetry axis was estimated using ΔSharm=−18×ΔO^2axis J mol^−1 K^−1. See Li Z et al. (1996) for further details of the model. To normalize the unequal number of resolved sites among the complexes, the average methyl order parameter within a complex was assigned to each unresolved site of that complex. A classical entropy term (ΔSrotamer(fast)) was added to represent minor conformers that are sampled owing to fast rotameric interconversion that also contributes to the generalized order parameter. Lee, A. L. et al. Temperature dependence of the internal dynamics of a calmodulin peptide complex. Biochemistry 41, 13814-13825 (2002).

[3] = area under fitted Gaussian, fixed centres
[4] = percentage of counts in class (number of observations), O^2axis 0.5 to 0.7
[5] = percentage of counts in class (number of observations), O^2axis above 0.7
[6] = percentage of counts in class (number of observations), O^2axis up to 0.5

Row | Substance | <O^2CαCO> (calmodulin [1]) | <O^2NH> (calmodulin [1]) | % J (calmodulin [2]; [3]) | % α (calmodulin [2]; [3]) | % ω (calmodulin [2]; [3]) | % α (calmodulin [2]; [4]) | % ω (calmodulin [2]; [5]) | % J (calmodulin [2]; [6])
1 | (COOH-FPNGFSRKRLMSKVLIVTTWSPLL [CaMKKα(p)] | 0.79 ± 0.21 | 0.93 ± 0.08 | 38.5% | 21.3% | 40.3% | 30% | 35% | 35%
2 | QTEKMWQRLKGILRSLVKQ [PDE(p)] |  | 0.92 ± 0.06 | 48.3% | 18.9% | 32.8% | 33% | 20% | 46%
3 | RKKTFKEVANAVKISASLMG [eNOS(p)] |  |  | 45.6% | 18.4% | 36.0% | 30% | 33% | 38%

Second part, the substance after the results:

Row | <O^2CαCO> (calmodulin [1]) | <O^2NH> (calmodulin [1]) | % J (calmodulin [2]; [3]) | % α (calmodulin [2]; [3]) | % ω (calmodulin [2]; [3]) | % α (calmodulin [2]; [4]) | % ω (calmodulin [2]; [5]) | % J (calmodulin [2]; [6]) | Substance
4 | 0.88 ± 0.14 | 0.94 ± 0.08 | 38.2% | 24.8% | 37.0% | 30% | 32% | 38% | AKSKWKQAFNATAVVRHMRKLQ (listed as Homo sapiens) [CaMKI(p)]
5 | 0.85 ± 0.16 | 0.92 ± 0.08 | 51.6% | 14.7% | 33.7% | 25% | 30% | 45% | KRRAIGFKKLAEAVKFSAKLMGQ [nNOS(p)]
